In patent US20180346602A1:

Tests used:
[1] = biological target: anti-VEGF/ANG2 antibody (wild-type IgG1 subclass) [IgG part: P01857]; experiment: sandwich ELISA assay A; capture M1.7.10-Bi; antibody 5 at 0 ng/mL (blank)
[2] = biological target: anti-VEGF/ANG2 antibody (IgG1 subclass with mutations P329G/L234A/L235A/I253A/H310A/H435A) [IgG part: P01857]; experiment: sandwich ELISA assay A; capture M1.7.10-Bi; antibody 1 at 0 ng/mL (blank)
[3] = biological target: anti-VEGF/ANG2 antibody (IgG1 subclass with mutations P329G/L234A/L235A/I253A/H310A/H435A) (human) [IgG part: P01857]; experiment: sandwich ELISA assay C; capture on SA plate; tracer FcγRI-Dig; analyte 25 ng/mL
[4] = biological target: anti-VEGF/ANG2 antibody (IgG1 subclass with mutations P329G/L234A/L235A) (human) [IgG part: P01857]; experiment: as above
[5] = biological target: anti-P-Selectin antibody (IgG4 subclass with mutations S228P/L235E) (human) [IgG part: P01861]; experiment: as above
[6] = biological target: anti-IGF-1R antibody (IgG1 subclass with mutations I253A/H310A/H435A) (human) [IgG part: P01857]; experiment: as above
[7] = biological target: anti-VEGF/ANG2 antibody (IgG1 subclass with mutations P329G/L234A/L235A/I253A/H310A/H435A) (human) [IgG part: P01857]; experiment: sandwich ELISA assay B; capture on SA plate; tracer M1.7.10-Dig; analyte 50 ng/mL
[8] = biological target: anti-VEGF/ANG2 antibody (IgG1 subclass with mutations P329G/L234A/L235A) (human) [IgG part: P01857]; experiment: as above
[9] = biological target: anti-P-Selectin antibody (IgG4 subclass with mutations S228P/L235E) (human) [IgG part: P01861]; experiment: as above
[10] = biological target: anti-IGF-1R antibody (IgG1 subclass with mutations I253A/H310A/H435A) (human) [IgG part: P01857]; experiment: as above
[11] = biological target: anti-VEGF/ANG2 antibody (IgG1 subclass with mutations P329G/L234A/L235A) [IgG part: P01857]; experiment: sandwich ELISA assay A; capture M1.7.10-Bi; antibody 2 at 13 ng/mL
[12] = biological target: anti-P-Selectin antibody (IgG4 subclass with mutations S228P/L235E) [IgG part: P01861]; experiment: sandwich ELISA assay A; capture M1.7.10-Bi; antibody 4 at 3 ng/mL
[13] = biological target: anti-VEGF/ANG2 antibody (IgG1 subclass with mutations P329G/L234A/L235A/I253A/H310A/H435A) [IgG part: P01857]; experiment: sandwich ELISA assay A; capture M1.7.10-Bi; antibody 1 at 100 ng/mL
[14] = biological target: anti-IGF-1R antibody (IgG1 subclass with mutations I253A/H310A/H435A) [IgG part: P01857]; experiment: sandwich ELISA assay A; capture M1.7.10-Bi; antibody 3 at 0 ng/mL (blank)
[15] = biological target: anti-VEGF/ANG2 antibody (wild-type IgG1 subclass) [IgG part: P01857]; experiment: sandwich ELISA assay A; capture M1.7.10-Bi; antibody 5 at 50 ng/mL
[16] = biological target: anti-VEGF/ANG2 antibody (IgG1 subclass with mutations P329G/L234A/L235A) [IgG part: P01857]; experiment: sandwich ELISA assay A; capture M1.7.10-Bi; antibody 2 at 25 ng/mL
[17] = biological target: anti-VEGF/ANG2 antibody (IgG1 subclass with mutations P329G/L234A/L235A/I253A/H310A/H435A) (human) [IgG part: P01857]; experiment: sandwich ELISA assay C; capture on SA plate; tracer FcγRI-Dig; analyte 100 ng/mL
[18] = biological target: anti-VEGF/ANG2 antibody (IgG1 subclass with mutations P329G/L234A/L235A) (human) [IgG part: P01857]; experiment: as above
[19] = biological target: anti-P-Selectin antibody (IgG4 subclass with mutations S228P/L235E) (human) [IgG part: P01861]; experiment: as above
[20] = biological target: anti-IGF-1R antibody (IgG1 subclass with mutations I253A/H310A/H435A) (human) [IgG part: P01857]; experiment: as above
[21] = biological target: anti-P-Selectin antibody (IgG4 subclass with mutations S228P/L235E) [IgG part: P01861]; experiment: sandwich ELISA assay A; capture M1.7.10-Bi; antibody 4 at 6 ng/mL
[22] = biological target: anti-VEGF/ANG2 antibody (IgG1 subclass with mutations P329G/L234A/L235A) [IgG part: P01857]; experiment: sandwich ELISA assay A; capture M1.7.10-Bi; antibody 2 at 2 ng/mL
[23] = biological target: anti-IGF-1R antibody (IgG1 subclass with mutations I253A/H310A/H435A) [IgG part: P01857]; experiment: sandwich ELISA assay A; capture M1.7.10-Bi; antibody 3 at 13 ng/mL
[24] = biological target: anti-IGF-1R antibody (IgG1 subclass with mutations I253A/H310A/H435A) [IgG part: P01857]; experiment: sandwich ELISA assay A; capture M1.7.10-Bi; antibody 3 at 6 ng/mL
[25] = biological target: anti-VEGF/ANG2 antibody (wild-type IgG1 subclass) [IgG part: P01857]; experiment: sandwich ELISA assay A; capture M1.7.10-Bi; antibody 5 at 13 ng/mL

B1: anti-variant (human) Fc-region antibody M1.3.17 (antibody, V domains shown)
VH: EVKLLESGGGLVQPGGSLKLSCAASGIDFRRYWMNWVRQAPGKGLEWIGEIDPDSSTINYTPSLKDKFIISRDNAKNTMYLQMRKVRSEDTALYYCARPYDYGAWFAYWGQGTLVTVSA
VL: QAVVTQESALTTSPGETVTLTCRSTTGAVTTSNYANWVQEKPDHLFTGLIGGTNKRAPGVPARFSGSLIGDKAALTITGAQTEDEAIYFCALWYSDHWVFGGGTKLTVL
signal [OD405 nm] [1]: 0.036 OD405 nm
signal [OD405 nm] [2]: 0.044 OD405 nm
signal [OD405 nm] [3]: 1.07 OD405 nm
signal [OD405 nm] [4]: 1.21 OD405 nm
signal [OD405 nm] [5]: 1.17 OD405 nm
signal [OD405 nm] [6]: 1.2 OD405 nm
signal [OD405 nm] [7]: 0.035 OD405 nm
signal [OD405 nm] [8]: 0.215 OD405 nm
signal [OD405 nm] [9]: 0.049 OD405 nm
signal [OD405 nm] [10]: 0.048 OD405 nm
signal [OD405 nm] [11]: 2.7 OD405 nm
signal [OD405 nm] [12]: 0.033 OD405 nm
signal [OD405 nm] [13]: 0.043 OD405 nm
signal [OD405 nm] [14]: 0.04 OD405 nm
signal [OD405 nm] [15]: 0.041 OD405 nm
signal [OD405 nm] [16]: 2.93 OD405 nm
signal [OD405 nm] [17]: 1.19 OD405 nm
signal [OD405 nm] [18]: 1.22 OD405 nm
signal [OD405 nm] [19]: 1.17 OD405 nm
signal [OD405 nm] [20]: 1.2 OD405 nm
signal [OD405 nm] [21]: 0.036 OD405 nm
signal [OD405 nm] [22]: 0.669 OD405 nm
signal [OD405 nm] [23]: 0.04 OD405 nm
signal [OD405 nm] [24]: 0.038 OD405 nm
signal [OD405 nm] [25]: 0.038 OD405 nm

B2: anti-variant (human) Fc-region antibody M1.7.24 (antibody, V domains shown)
VH: EVKLLESGGGLVQPGGSLKLSCAASGFDFSRYWMNWVRQAPGKGLEWIGEITPDSSTINYTPSLKDKFIISRDNAKNTLYLQMIKVRSEDTALYYCVRPYDYGAWFASWGQGTLVTVSA
VL: QAVVTQESALTTSPGETVTLTCRSSTGAVTTSNYANWVQEKPDHLFTGLIGGTNKRAPGVPARFSGSLIGDKAALTITGAQTEDEAIYFCALWYSNHWVFGGGTKLTVL
signal [OD405 nm] [1]: 0.041 OD405 nm
signal [OD405 nm] [2]: 0.05 OD405 nm
signal [OD405 nm] [3]: 0.082 OD405 nm
signal [OD405 nm] [4]: 0.083 OD405 nm
signal [OD405 nm] [5]: 0.07 OD405 nm
signal [OD405 nm] [6]: 0.073 OD405 nm
signal [OD405 nm] [7]: 0.06 OD405 nm
signal [OD405 nm] [8]: 3.17 OD405 nm
signal [OD405 nm] [9]: 0.043 OD405 nm
signal [OD405 nm] [10]: 0.064 OD405 nm
signal [OD405 nm] [11]: 2.52 OD405 nm
signal [OD405 nm] [12]: 0.04 OD405 nm
signal [OD405 nm] [13]: 0.053 OD405 nm
signal [OD405 nm] [14]: 0.049 OD405 nm
signal [OD405 nm] [15]: 0.048 OD405 nm
signal [OD405 nm] [16]: 2.61 OD405 nm
signal [OD405 nm] [17]: 0.05 OD405 nm
signal [OD405 nm] [18]: 0.082 OD405 nm
signal [OD405 nm] [19]: 0.08 OD405 nm
signal [OD405 nm] [20]: 0.11 OD405 nm
signal [OD405 nm] [21]: 0.045 OD405 nm
signal [OD405 nm] [22]: 1.13 OD405 nm
signal [OD405 nm] [23]: 0.044 OD405 nm
signal [OD405 nm] [24]: 0.042 OD405 nm
signal [OD405 nm] [25]: 0.042 OD405 nm

B3: anti-AAA variant Fc-region antibody M1.6.22 (antibody, V domains shown)
VH: EVQLVESGGDLVKPGGSLKLSCAASGFTFSSYGMSWVRQTPDKRLEWVATISSGGSYIYYPDSVKGRFTISRDNAKNTLYLQMSSLKSEDTAMYYCARLGMITTGYAMDYWGQGTSVTVSS
VL: DVLMTQTPLSLPVSLGDQASISCRSSQTIVHSTGHTYLEWFLQKPGQSPKLLIYKVSNRFSGVPDRFSGSGSGTDFTLKISRVEAEDLGVYYCFQGSHVPYTFGGGTKLEIK
signal [OD405 nm] [1]: 0.042 OD405 nm
signal [OD405 nm] [2]: 0.058 OD405 nm
signal [OD405 nm] [3]: 0.081 OD405 nm
signal [OD405 nm] [4]: 0.063 OD405 nm
signal [OD405 nm] [5]: 0.06 OD405 nm
signal [OD405 nm] [6]: 0.401 OD405 nm
signal [OD405 nm] [7]: 0.05 OD405 nm
signal [OD405 nm] [8]: 0.127 OD405 nm
signal [OD405 nm] [9]: 0.047 OD405 nm
signal [OD405 nm] [10]: 2.9 OD405 nm
signal [OD405 nm] [11]: 0.051 OD405 nm
signal [OD405 nm] [12]: 0.037 OD405 nm
signal [OD405 nm] [13]: 0.059 OD405 nm
signal [OD405 nm] [14]: 0.046 OD405 nm
signal [OD405 nm] [15]: 0.045 OD405 nm
signal [OD405 nm] [16]: 0.06 OD405 nm
signal [OD405 nm] [17]: 0.079 OD405 nm
signal [OD405 nm] [18]: 0.076 OD405 nm
signal [OD405 nm] [19]: 0.069 OD405 nm
signal [OD405 nm] [20]: 2.1 OD405 nm
signal [OD405 nm] [21]: 0.041 OD405 nm
signal [OD405 nm] [22]: 0.047 OD405 nm
signal [OD405 nm] [23]: 1.74 OD405 nm
signal [OD405 nm] [24]: 0.858 OD405 nm
signal [OD405 nm] [25]: 0.045 OD405 nm
